B1: Vacuolar protein sorting-associated protein 33A (Homo sapiens), Q96AX1 (parent)
chain: MAAHLSYGRVNLNVLREAVRRELREFLDKCAGSKAIVWDEYLTGPFGLIAQYSLLKEHEVEKMFTLKGNRLPAADVKNIIFFVRPRLELMDIIAENVLSEDRRGPTRDFHILFVPRRSLLCEQRLKDLGVLGSFIHREEYSLDLIPFDGDLLSMESEGAFKECYLEGDQTSLYHAAKGLMTLQALYGTIPQIFGKGECARQVANMMIRMKREFTGSQNSIFPVFDNLLLLDRNVDLLTPLATQLTYEGLIDEIYGIQNSYVKLPPEKFAPKKQGDGGKDLPTEAKKLQLNSAEELYAEIRDKNFNAVGSVLSKKAKIISAAFEERHNAKTVGEIKQFVSQLPHMQAARGSLANHTSIAELIKDVTTSEDFFDKLTVEQEFMSGIDTDKVNNYIEDCIAQKHSLIKVLRLVCLQSVCNSGLKQKVLDYYKREILQTYGYEHILTLHNLEKAGLLKPQTGGRNNYPTIRKTLRLWMDDVNEQNPTDISYVYSGYAPLSVRLAQLLSRPGWRSIEEVLRILPGPHFEERQPLPTGLQKKRQPGENRVTLIFFLGGVTFAEIAALRFLSQLEDGGTEYVIATTKLMNGTSWIEALMEKPF
partner: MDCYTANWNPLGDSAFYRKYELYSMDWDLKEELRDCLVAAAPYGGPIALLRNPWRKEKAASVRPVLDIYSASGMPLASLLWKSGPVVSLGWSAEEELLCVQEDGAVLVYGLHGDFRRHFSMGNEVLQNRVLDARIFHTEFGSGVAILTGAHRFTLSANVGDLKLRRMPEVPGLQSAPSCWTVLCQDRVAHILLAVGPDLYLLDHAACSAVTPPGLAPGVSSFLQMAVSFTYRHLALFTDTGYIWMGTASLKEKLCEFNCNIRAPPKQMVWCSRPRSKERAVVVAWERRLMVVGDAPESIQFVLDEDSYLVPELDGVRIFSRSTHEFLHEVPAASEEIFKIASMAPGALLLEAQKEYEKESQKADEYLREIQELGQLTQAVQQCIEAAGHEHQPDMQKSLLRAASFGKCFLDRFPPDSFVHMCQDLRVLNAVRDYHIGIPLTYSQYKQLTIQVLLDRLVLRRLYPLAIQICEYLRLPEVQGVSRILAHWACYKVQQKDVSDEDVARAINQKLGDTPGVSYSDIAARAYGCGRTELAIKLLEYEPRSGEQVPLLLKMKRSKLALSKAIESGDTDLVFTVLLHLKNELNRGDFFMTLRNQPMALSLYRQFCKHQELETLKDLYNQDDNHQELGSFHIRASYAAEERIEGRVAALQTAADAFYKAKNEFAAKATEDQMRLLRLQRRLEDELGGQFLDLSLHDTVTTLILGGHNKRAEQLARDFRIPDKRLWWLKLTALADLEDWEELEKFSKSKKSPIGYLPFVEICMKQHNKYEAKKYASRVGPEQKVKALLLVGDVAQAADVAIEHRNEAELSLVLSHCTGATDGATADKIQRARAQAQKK
B2: Vacuolar protein sorting-associated protein 33B (Homo sapiens), Q9H267 (parent)
chain: MAFPHRPDAPELPDFSMLKRLARDQLIYLLEQLPGKKDLFIEADLMSPLDRIANVSILKQHEVDKLYKVENKPALSSNEQLCFLVRPRIKNMRYIASLVNADKLAGRTRKYKVIFSPQKFYACEMVLEEEGIYGDVSCDEWAFSLLPLDVDLLSMELPEFFRDYFLEGDQRWINTVAQALHLLSTLYGPFPNCYGIGRCAKMAYELWRNLEEEEDGETKGRRPEIGHIFLLDRDVDFVTALCSQVVYEGLVDDTFRIKCGSVDFGPEVTSSDKSLKVLLNAEDKVFNEIRNEHFSNVFGFLSQKARNLQAQYDRRRGMDIKQMKNFVSQELKGLKQEHRLLSLHIGACESIMKKKTKQDFQELIKTEHALLEGFNIRESTSYIEEHIDRQVSPIESLRLMCLLSITENGLIPKDYRSLKTQYLQSYGPEHLLTFSNLRRAGLLTEQAPGDTLTAVESKVSKLVTDKAAGKITDAFSSLAKRSNFRAISKKLNLIPRVDGEYDLKVPRDMAYVFGGAYVPLSCRIIEQVLERRSWQGLDEVVRLLNCSDFAFTDMTKEDKASSESLRLILVVFLGGCTFSEISALRFLGREKGYRFIFLTTAVTNSARLMEAMSEVKA
partner: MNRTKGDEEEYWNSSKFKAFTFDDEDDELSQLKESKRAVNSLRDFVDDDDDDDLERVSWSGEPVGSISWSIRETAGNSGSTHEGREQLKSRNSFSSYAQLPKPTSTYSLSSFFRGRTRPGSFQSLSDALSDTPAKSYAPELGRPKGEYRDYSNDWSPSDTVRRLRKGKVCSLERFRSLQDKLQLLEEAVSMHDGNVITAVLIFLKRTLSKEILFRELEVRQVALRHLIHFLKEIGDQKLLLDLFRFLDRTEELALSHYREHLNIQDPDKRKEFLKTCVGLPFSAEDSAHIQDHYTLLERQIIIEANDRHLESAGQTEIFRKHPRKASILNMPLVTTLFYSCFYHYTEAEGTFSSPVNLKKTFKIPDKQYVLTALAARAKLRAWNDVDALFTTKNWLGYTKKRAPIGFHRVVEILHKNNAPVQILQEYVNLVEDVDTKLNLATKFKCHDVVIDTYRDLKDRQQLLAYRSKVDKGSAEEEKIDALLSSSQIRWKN

Variants of: B1
Conditions: with vps16_human VPS16, Q9H269

Row | Variant | effect of a mutation on the interaction
1 | MAAHLSYGRVNLNVLREAVRRELREFLDKCAGSKAIVWDEYLTGPFGLIAQYSLLKEHEVEKMFTLKGNRLPAADVKNIIFFVRPRLELMDIIAENVLSEDRRGPTRDFHILFVPRRSLLCEQRLKDLGVLGSFIHREEYSLDLIPFDGDLLSMESEGAFKECYLEGDQTSLYHAAKGLMTLQALYGTIPQIFGKGECARQVANMMIRMKREFTGSQNSIFPVFDNLLLLDRNVDLLTPLATQLTYEGLIDEIYGIQNSYVKLPPEKFAPKKQGDGGKDLPTEAKKLQLNSAEELYAEIRDKNFNAVGSVLSKKAKIISAAFEERHNAKTVGEIKQFVSQLPHMQAARGSLANHTSIAELIKDVTTSEDFFDKLTVEQEFMSGIDTDKVNNYIEDCIAQKHSLIKVLRLVCLQSVCNSGLKQKVLDYYKREILQTYGDEHKLTLHNLEKAGLLKPQTGGRNNYPTIRKTLRLWMDDVNEQNPTDISYVYSGYAPLSVRLAQLLSRPGWRSIEEVLRILPGPHFEERQPLPTGLQKKRQPGENRVTLIFFLGGVTFAEIAALRFLSQLEDGGTEYVIATTKLMNGTSWIEALMEKPF [Y438D;I441K] | disrupting interaction strength

Variants of: B2
Conditions: with spe39_human VIPAS39, Q9H9C1

Row | Variant | effect of a mutation on the interaction
2 | P428D;L431K | decreasing interaction strength
3 | K419D;L431K | disrupting interaction strength
